Sequences and labels used below:
B1: PLAGL1 (parent)
chain: TKEKKHQCDHCERCFYTRKDVRRH
B2: ZBED1 (parent)
chain: EQVFSLGDGVSGGFFGIRDSSFL
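Further: lentivirally expressed fusions sorted by FACS into six bins by GFP to DsRed ratio, PSI derived from sequencing read proportions per bin multiplied by bin number.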

One series covers variants of B1. Nature of the series: protein stability index of a GFP-peptide fusion (GPS, HEK-293T) (PSI 1-6); higher = more stable. The conditions noted are these: c terminus: a fixed tail appended.
Regarding TKEKKHQCDHCERCFYTRKDVKRH [R22K], the protein stability index turned out to be 3.76. Turning to TKEKKHQCDHCERCFYTRKDVYRH [R22Y], the protein stability index is 3.69. For the variant TKEKKHQCDHCERCFYTRKDVCRH [R22C], the protein stability index is 4.07. As for TKEKKHQCDHCERCFYTRKDVGRH [R22G], the protein stability index came to 3.61.

For the variant TKEKKHQCDHCERCFYTRKDVIRH [R22I], the protein stability index came out at 3.48. Regarding TKEKKHQCDHCERCFYTRKDVTRH [R22T], the protein stability index was found to be 4.04.

Another series covers variants of B2. The description is as above. As to conditions: c terminus: native.
EQNFSLGDGVSGGFFGIRDSSFL [V3N]: the protein stability index was 3.82. For EQHFSLGDGVSGGFFGIRDSSFL [V3H], the protein stability index worked out at 3.99. Still for that read-out and setting: the same measure for EQYFSLGDGVSGGFFGIRDSSFL [V3Y]: 3.01; for EQKFSLGDGVSGGFFGIRDSSFL [V3K]: 3.7; for EQFFSLGDGVSGGFFGIRDSSFL [V3F]: 2.52. In the case of EQPFSLGDGVSGGFFGIRDSSFL [V3P], the protein stability index came out at 4.06. As for EQEFSLGDGVSGGFFGIRDSSFL [V3E], the protein stability index came to 4.17. As for EQCFSLGDGVSGGFFGIRDSSFL [V3C], the protein stability index stood at 2.92. Consider EQQFSLGDGVSGGFFGIRDSSFL [V3Q], for which the protein stability index is 4.23.

With EQWFSLGDGVSGGFFGIRDSSFL [V3W], the protein stability index came to 2.55.

As to EQSFSLGDGVSGGFFGIRDSSFL [V3S], the protein stability index was 3.63.

For the variant EQTFSLGDGVSGGFFGIRDSSFL [V3T], the protein stability index was 3.6. On to EQAFSLGDGVSGGFFGIRDSSFL [V3A], for which the protein stability index amounted to 4.03. Consider EQIFSLGDGVSGGFFGIRDSSFL [V3I], for which the protein stability index turned out to be 2.9. Same read-out and setting: with EQRFSLGDGVSGGFFGIRDSSFL [V3R] the figure was 3.55; with EQGFSLGDGVSGGFFGIRDSSFL [V3G], 4.03. Consider EQLFSLGDGVSGGFFGIRDSSFL [V3L], for which the protein stability index was 2.91.

With EQMFSLGDGVSGGFFGIRDSSFL [V3M], the protein stability index came out at 3.15.

As to EQDFSLGDGVSGGFFGIRDSSFL [V3D], the protein stability index stood at 4.19.

For the variant EMVFSLGDGVSGGFFGIRDSSFL [Q2M], the protein stability index amounted to 1.65.

With EEVFSLGDGVSGGFFGIRDSSFL [Q2E], the protein stability index was 3.88.

In the case of ELVFSLGDGVSGGFFGIRDSSFL [Q2L], the protein stability index turned out to be 1.8. On to ERVFSLGDGVSGGFFGIRDSSFL [Q2R], for which the protein stability index was determined as 3.

As to EPVFSLGDGVSGGFFGIRDSSFL [Q2P], the protein stability index stood at 3.46. Regarding EVVFSLGDGVSGGFFGIRDSSFL [Q2V], the protein stability index was 2.17. For the variant EWVFSLGDGVSGGFFGIRDSSFL [Q2W], the protein stability index stood at 2.03. With ENVFSLGDGVSGGFFGIRDSSFL [Q2N], the protein stability index was 2.98. For the variant ETVFSLGDGVSGGFFGIRDSSFL [Q2T], the protein stability index worked out at 3.04. Consider EFVFSLGDGVSGGFFGIRDSSFL [Q2F], for which the protein stability index came to 1.72. As for EYVFSLGDGVSGGFFGIRDSSFL [Q2Y], the protein stability index amounted to 2.43.

Take EDVFSLGDGVSGGFFGIRDSSFL [Q2D]: the protein stability index came to 3.7. As to ECVFSLGDGVSGGFFGIRDSSFL [Q2C], the protein stability index stood at 1.96. EIVFSLGDGVSGGFFGIRDSSFL [Q2I]: the protein stability index was found to be 1.84.

Take ESVFSLGDGVSGGFFGIRDSSFL [Q2S]: the protein stability index worked out at 3.44. Same read-out and setting: the same measure for EGVFSLGDGVSGGFFGIRDSSFL [Q2G]: 3.05; for EAVFSLGDGVSGGFFGIRDSSFL [Q2A]: 2.44; for EKVFSLGDGVSGGFFGIRDSSFL [Q2K]: 2.74. In the case of EHVFSLGDGVSGGFFGIRDSSFL [Q2H], the protein stability index is 3.22. In the case of EQVFQLGDGVSGGFFGIRDSSFL [S5Q], the protein stability index was found to be 3.34.

On to EQVFRLGDGVSGGFFGIRDSSFL [S5R], for which the protein stability index came out at 3.29. For the variant EQVFALGDGVSGGFFGIRDSSFL [S5A], the protein stability index worked out at 2.98.

As to EQVFILGDGVSGGFFGIRDSSFL [S5I], the protein stability index was determined as 2.16. The same measure, in the same setting: with EQVFPLGDGVSGGFFGIRDSSFL [S5P] the figure was 3.2; with EQVFNLGDGVSGGFFGIRDSSFL [S5N], 3.96; with EQVFCLGDGVSGGFFGIRDSSFL [S5C], 2.6. The same measure, in the same setting: with EQVFDLGDGVSGGFFGIRDSSFL [S5D] the figure was 3.74; with EQVFFLGDGVSGGFFGIRDSSFL [S5F], 1.75. Take EQVFMLGDGVSGGFFGIRDSSFL [S5M]: the protein stability index is 2.67. Consider EQVFGLGDGVSGGFFGIRDSSFL [S5G], for which the protein stability index worked out at 3.27. Same read-out and setting: with EQVFLLGDGVSGGFFGIRDSSFL [S5L] the figure was 2.24. As to EQVFHLGDGVSGGFFGIRDSSFL [S5H], the protein stability index amounted to 3.36.

Take EQVFELGDGVSGGFFGIRDSSFL [S5E]: the protein stability index amounted to 3.81. On the same count and under the same terms, the same measure for EQVFKLGDGVSGGFFGIRDSSFL [S5K]: 3.31.

For the variant EQVKSLGDGVSGGFFGIRDSSFL [F4K], the protein stability index was 4.06.

For the variant EQVTSLGDGVSGGFFGIRDSSFL [F4T], the protein stability index came to 3.75. The same measure, in the same setting: the same measure for EQVLSLGDGVSGGFFGIRDSSFL [F4L]: 3.36; for EQVYSLGDGVSGGFFGIRDSSFL [F4Y]: 3.47. The same measure, in the same setting: the same measure for EQVGSLGDGVSGGFFGIRDSSFL [F4G]: 4.16; for EQVISLGDGVSGGFFGIRDSSFL [F4I]: 3.63. With EQVHSLGDGVSGGFFGIRDSSFL [F4H], the protein stability index came to 4.16. In the case of EQVPSLGDGVSGGFFGIRDSSFL [F4P], the protein stability index came out at 4.11. As to EQVNSLGDGVSGGFFGIRDSSFL [F4N], the protein stability index amounted to 4.11. As to EQVMSLGDGVSGGFFGIRDSSFL [F4M], the protein stability index is 3.63. Take EQVCSLGDGVSGGFFGIRDSSFL [F4C]: the protein stability index stood at 3.18. EQVWSLGDGVSGGFFGIRDSSFL [F4W]: the protein stability index came out at 3.08.

EQVQSLGDGVSGGFFGIRDSSFL [F4Q]: the protein stability index is 4.12. Consider EQVESLGDGVSGGFFGIRDSSFL [F4E], for which the protein stability index amounted to 4.55. Still for that read-out and setting: the same measure for EQVSSLGDGVSGGFFGIRDSSFL [F4S]: 4.29.

Regarding EQVRSLGDGVSGGFFGIRDSSFL [F4R], the protein stability index was 4.16. Consider EQVVSLGDGVSGGFFGIRDSSFL [F4V], for which the protein stability index is 3.85. Take EQVASLGDGVSGGFFGIRDSSFL [F4A]: the protein stability index worked out at 4.22. Consider EQVDSLGDGVSGGFFGIRDSSFL [F4D], for which the protein stability index worked out at 4.38. Still for that read-out and setting: the same measure for VQVFSLGDGVSGGFFGIRDSSFL [E1V]: 3.14. Take NQVFSLGDGVSGGFFGIRDSSFL [E1N]: the protein stability index worked out at 2.99. The same measure, in the same setting: the same measure for RQVFSLGDGVSGGFFGIRDSSFL [E1R]: 2.06; for KQVFSLGDGVSGGFFGIRDSSFL [E1K]: 2.64; for TQVFSLGDGVSGGFFGIRDSSFL [E1T]: 2.35. For FQVFSLGDGVSGGFFGIRDSSFL [E1F], the protein stability index was 2.19. Turning to AQVFSLGDGVSGGFFGIRDSSFL [E1A], the protein stability index was 2.52. Take GQVFSLGDGVSGGFFGIRDSSFL [E1G]: the protein stability index was determined as 2.45.

Take SQVFSLGDGVSGGFFGIRDSSFL [E1S]: the protein stability index came out at 2.83. The same measure, in the same setting: with DQVFSLGDGVSGGFFGIRDSSFL [E1D] the figure was 3.69; with QQVFSLGDGVSGGFFGIRDSSFL [E1Q], 2.77; with PQVFSLGDGVSGGFFGIRDSSFL [E1P], 2.64.

Turning to WQVFSLGDGVSGGFFGIRDSSFL [E1W], the protein stability index worked out at 1.62. Take CQVFSLGDGVSGGFFGIRDSSFL [E1C]: the protein stability index came to 1.16. Regarding HQVFSLGDGVSGGFFGIRDSSFL [E1H], the protein stability index came out at 2.45. Turning to MQVFSLGDGVSGGFFGIRDSSFL [E1M], the protein stability index amounted to 1.89. As to YQVFSLGDGVSGGFFGIRDSSFL [E1Y], the protein stability index turned out to be 3.12. For the variant LQVFSLGDGVSGGFFGIRDSSFL [E1L], the protein stability index stood at 2.3.

The record behind these values is the supplement of paper PMC10567573.
